Data as given in the supplement of paper PMC10567573.

B1: C9orf9 (parent)
chain: TKHKCRQLTKASLKPRGCSKPPWR
B2: TMEM192 (parent)
chain: ILGKVILWILHLLLECYIQYHHSK

Variants of: B1
Assay: protein stability index of a GFP-peptide fusion (GPS, HEK-293T) (PSI 1-6); higher = more stable
Settings: c terminus: a fixed tail appended
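Also: lentivirally expressed fusions sorted by FACS into six bins by GFP to DsRed ratio, PSI derived from sequencing read proportions per bin multiplied by bin number.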

Compared with K14E, K14Q is lower in protein stability index: 3 for the first, 2.68 for the second.

Compared with K14P, K14D is lower in protein stability index: 2.98 for the first, 2.2 for the second.

Going from K14N to K14W, the protein stability index falls from 3.41 to 2.56.

First: K14T
Second: K14C
The protein stability index of the first is higher: 3.17 for the first, 2.63 for the second.

First: R16M
Second: R16D
The protein stability index of the first is lower: 2.45 for the first, 3.28 for the second.

First: R16I
Second: R16G
The protein stability index of the first is higher: 2.56 for the first, 2.42 for the second.

Compared with R16K, R16L is higher in protein stability index: 2 for the first, 2.56 for the second.

Compared with R16W, R16S is higher in protein stability index: 1.69 for the first, 2.89 for the second.

Going from R16P to R16V, the protein stability index rises from 3.31 to 3.76.

First: R16E
Second: R16A
The protein stability index of the first is lower: 2.33 for the first, 2.72 for the second.

First: R16N
Second: R16Y
The protein stability index of the first is higher: 3.08 for the first, 2.28 for the second.

First: R16T
Second: R16C
The protein stability index of the first is lower: 2.67 for the first, 2.75 for the second.

First: R16H
Second: W23A
The protein stability index of the first is lower: 2.6 for the first, 3.89 for the second.

Compared with W23R, W23E is higher in protein stability index: 3.96 for the first, 4.29 for the second.

Compared with W23I, W23D is higher in protein stability index: 3.56 for the first, 4.3 for the second.

Going from W23N to W23F, the protein stability index falls from 4.32 to 2.67.

First: W23Y
Second: W23C
The protein stability index of the first is higher: 3.86 for the first, 2.89 for the second.

Compared with W23Q, W23H is higher in protein stability index: 3.46 for the first, 4.46 for the second.

Compared with W23K, W23L is lower in protein stability index: 4.63 for the first, 3.72 for the second.

First: W23M
Second: W23G
The protein stability index of the first is higher: 3.05 for the first, 2.73 for the second.

Compared with W23S, W23V is higher in protein stability index: 2.84 for the first, 3.28 for the second.

Going from W23T to W23P, the protein stability index rises from 3.93 to 4.18.

Compared with L13C, L13G is higher in protein stability index: 3.26 for the first, 4.47 for the second.

Going from L13H to L13I, the protein stability index rises from 2.88 to 3.22.

First: L13V
Second: L13Y
The protein stability index of the first is lower: 2.33 for the first, 2.43 for the second.

Going from L13N to L13D, the protein stability index rises from 2.92 to 3.64.

Going from L13P to L13R, the protein stability index rises from 3.42 to 3.55.

First: L13Q
Second: L13W
The protein stability index of the first is higher: 3.57 for the first, 3.03 for the second.

Going from L13F to L13T, the protein stability index rises from 2.63 to 3.32.

Compared with L13S, L13A is lower in protein stability index: 3.5 for the first, 3.23 for the second.

First: L13E
Second: L13M
The protein stability index of the first is higher: 2.91 for the first, 2.8 for the second.

First: S12G
Second: S12L
The protein stability index of the first is higher: 3.76 for the first, 2.19 for the second.

Compared with S12H, S12K is higher in protein stability index: 2.35 for the first, 3.81 for the second.

First: S12I
Second: S12N
The protein stability index of the first is lower: 2.87 for the first, 3.19 for the second.

Compared with S12A, S12F is lower in protein stability index: 2.98 for the first, 2.28 for the second.

Compared with S12R, S12E is lower in protein stability index: 3.37 for the first, 2.57 for the second.

Compared with S12Q, S12M is lower in protein stability index: 3.25 for the first, 1.54 for the second.

Going from S12P to S12C, the protein stability index falls from 3.28 to 2.41.

Compared with S12T, S12Y is lower in protein stability index: 2.6 for the first, 2.06 for the second.

Compared with S12D, S12W is lower in protein stability index: 2.82 for the first, 2.09 for the second.

Variants of: B2
Assay: as above
Settings: c terminus: a fixed tail appended

Going from K4M to C16E, the protein stability index falls from 3.11 to 2.48.

Going from C16M to C16K, the protein stability index rises from 3.3 to 3.66.

First: C16A
Second: C16G
The protein stability index of the first is lower: 3.38 for the first, 3.5 for the second.

First: C16D
Second: L14M
The protein stability index of the first is lower: 2.6 for the first, 2.95 for the second.

Going from L7I to L7F, the protein stability index rises from 2.24 to 2.7.

Going from L7D to L7P, the protein stability index falls from 2.86 to 1.85.

Compared with L7C, L2S is higher in protein stability index: 2.19 for the first, 2.82 for the second.

Compared with L2H, L2Y is higher in protein stability index: 1.91 for the first, 2.77 for the second.

Going from L2G to L2E, the protein stability index falls from 3.77 to 2.32.

First: L2D
Second: E15A
The protein stability index of the first is lower: 2.04 for the first, 3.03 for the second.

Compared with E15M, E15V is higher in protein stability index: 2.76 for the first, 3.17 for the second.

Compared with E15G, E15Y is lower in protein stability index: 2.81 for the first, 2.69 for the second.

First: L12F
Second: H22I
The protein stability index of the first is higher: 2.47 for the first, 2.33 for the second.

Compared with H22T, H22A is higher in protein stability index: 2.36 for the first, 2.94 for the second.

First: H22E
Second: Y17N
The protein stability index of the first is lower: 2.6 for the first, 3.47 for the second.

Compared with Y17H, S23R is higher in protein stability index: 3.22 for the first, 3.3 for the second.

Going from S23K to S23M, the protein stability index falls from 2.82 to 2.49.

Compared with S23A, S23V is higher in protein stability index: 2.08 for the first, 4.52 for the second.

Compared with I6T, I6W is lower in protein stability index: 3.07 for the first, 2.72 for the second.

First: I6P
Second: I18H
The protein stability index of the first is higher: 2.73 for the first, 2.59 for the second.

Going from I18G to I18C, the protein stability index falls from 2.71 to 2.4.

First: K24M
Second: W8N
The protein stability index of the first is lower: 3.05 for the first, 3.71 for the second.

First: W8F
Second: W8D
The protein stability index of the first is higher: 3.29 for the first, 2.44 for the second.

Compared with W8K, W8M is higher in protein stability index: 2.89 for the first, 3.22 for the second.

Going from I9Q to I9N, the protein stability index rises from 2.8 to 4.27.

Compared with I9M, H11N is higher in protein stability index: 2.58 for the first, 2.91 for the second.

Going from H11A to H11F, the protein stability index rises from 2.76 to 3.18.

Compared with L10P, Q19L is higher in protein stability index: 3.36 for the first, 4.51 for the second.

Compared with Q19T, Q19I is higher in protein stability index: 2.57 for the first, 2.76 for the second.

First: Q19E
Second: Q19K
The protein stability index of the first is higher: 3.03 for the first, 2.25 for the second.

Compared with Q19H, I1E is higher in protein stability index: 2.44 for the first, 3.42 for the second.

Compared with I1D, I1N is higher in protein stability index: 2.93 for the first, 3.45 for the second.

Compared with I1Q, G3F is higher in protein stability index: 2.5 for the first, 2.9 for the second.

Going from G3W to G3C, the protein stability index rises from 2.58 to 3.41.

Compared with G3Q, G3N is lower in protein stability index: 3.27 for the first, 2.87 for the second.

First: G3V
Second: G3M
The protein stability index of the first is lower: 2.32 for the first, 2.76 for the second.

Going from Y20C to Y20W, the protein stability index falls from 3.13 to 2.22.

Going from L13R to L13V, the protein stability index rises from 2.37 to 2.8.

Compared with L13M, L13I is lower in protein stability index: 3.1 for the first, 2.04 for the second.

First: V5F
Second: V5H
The protein stability index of the first is higher: 2.7 for the first, 2.2 for the second.

First: V5Y
Second: V5I
The protein stability index of the first is higher: 4.62 for the first, 3.3 for the second.

First: H21N
Second: H21K
The protein stability index of the first is lower: 1.95 for the first, 3.49 for the second.

Going from H21D to H21E, the protein stability index falls from 4.02 to 3.

In the case of H21M, the protein stability index is reported as 2.86.
